Test results: the Human Domainome abundance scans (Beltran et al. 2025)
± gives the uncertainty stated by the source.

B1: Arginine-glutamic acid dipeptide repeats protein, residues 502 to 543; numbered along this chain, Q9P2R6 (parent)
chain: LKGYACRHCFTTTSKDWHHGGRENILLCTDCRIHFKKYGELP

Variants of: B1
Assay: abundance fitness (aPCA) (normalised: wild type 0, dead -1); higher = more abundant; growth selection in yeast, the domain comes from the species named
Conditions: Homo sapiens

Variant	abundance fitness
LKGYACRHCFTTTSKDWHYGGRENILLCTDCRIHFKKYGELP [H19Y]	-0.246 ± 0.1
LKGYACRHCFTTTSKDWHMGGRENILLCTDCRIHFKKYGELP [H19M]	0.008 ± 0.048
LKGYACRHCFTTTSKDWHWGGRENILLCTDCRIHFKKYGELP [H19W]	-0.204 ± 0.044
LKGYACRHCFTTTSKDWHSGGRENILLCTDCRIHFKKYGELP [H19S]	-0.026 ± 0.035
LKGYACRHCFTTTSKDWHEGGRENILLCTDCRIHFKKYGELP [H19E]	0.02 ± 0.04
LKGYACRHCFTTTSKDWHCGGRENILLCTDCRIHFKKYGELP [H19C]	-0.033 ± 0.083
LKGYACRHCFTTTSKDWHAGGRENILLCTDCRIHFKKYGELP [H19A]	-0.048 ± 0.035
LKGYACRHCFTTTSKDWHIGGRENILLCTDCRIHFKKYGELP [H19I]	-0.045 ± 0.054
LKGYACRHCFTTTSKDWHRGGRENILLCTDCRIHFKKYGELP [H19R]	-0.047 ± 0.034
LKGYACRHCFTTTSKDWHPGGRENILLCTDCRIHFKKYGELP [H19P]	-0.046 ± 0.043
LKGYACRHCFTTTSKDWHGGGRENILLCTDCRIHFKKYGELP [H19G]	-0.073 ± 0.033
LKGYACRHCFTTTSKLWHHGGRENILLCTDCRIHFKKYGELP [D16L]	-0.442 ± 0.037
LKGYACRHCFTTTSKQWHHGGRENILLCTDCRIHFKKYGELP [D16Q]	-0.449 ± 0.062
LKGYACRHCFTTTSKPWHHGGRENILLCTDCRIHFKKYGELP [D16P]	-0.701 ± 0.08
LKGYACRHCFTTTSKMWHHGGRENILLCTDCRIHFKKYGELP [D16M]	-0.397 ± 0.039
LKGYACRHCFTTTSKTWHHGGRENILLCTDCRIHFKKYGELP [D16T]	-0.391 ± 0.06
LKGYACRHCFTTTSKWWHHGGRENILLCTDCRIHFKKYGELP [D16W]	-0.515 ± 0.042
LKGYACRHCFTTTSKKWHHGGRENILLCTDCRIHFKKYGELP [D16K]	-0.154 ± 0.049
LKGYACRHCFTTTSKYWHHGGRENILLCTDCRIHFKKYGELP [D16Y]	-0.555 ± 0.079
LKGYACRHCFTTTSKAWHHGGRENILLCTDCRIHFKKYGELP [D16A]	-0.358 ± 0.038

Variant	abundance fitness
LKGYACRHCFTTTSKRWHHGGRENILLCTDCRIHFKKYGELP [D16R]	-0.451 ± 0.038
LKGYACRHCFTTTSKCWHHGGRENILLCTDCRIHFKKYGELP [D16C]	-0.633 ± 0.47
LKGYACRHCFTTTSKEWHHGGRENILLCTDCRIHFKKYGELP [D16E]	-0.15 ± 0.041
LKGYACRHCFTTTSKVWHHGGRENILLCTDCRIHFKKYGELP [D16V]	-0.412 ± 0.036
LKGYACRHCFTTTSKFWHHGGRENILLCTDCRIHFKKYGELP [D16F]	-0.48 ± 0.081
LKGYACRHCFTTTSKNWHHGGRENILLCTDCRIHFKKYGELP [D16N]	-0.277 ± 0.064
LKGYACRHCFTTTSKGWHHGGRENILLCTDCRIHFKKYGELP [D16G]	-0.342 ± 0.038
LKGYACRHCFTTTSKHWHHGGRENILLCTDCRIHFKKYGELP [D16H]	-0.501 ± 0.093
LKGYACRHCFTTTSKSWHHGGRENILLCTDCRIHFKKYGELP [D16S]	-0.263 ± 0.049
LKGYACRHCFTTTSEDWHHGGRENILLCTDCRIHFKKYGELP [K15E]	0.007 ± 0.035
LKGYACRHCFTTTSGDWHHGGRENILLCTDCRIHFKKYGELP [K15G]	-0.174 ± 0.033
LKGYACRHCFTTTSTDWHHGGRENILLCTDCRIHFKKYGELP [K15T]	-0.002 ± 0.049
LKGYACRHCFTTTSSDWHHGGRENILLCTDCRIHFKKYGELP [K15S]	-0.162 ± 0.034
LKGYACRHCFTTTSQDWHHGGRENILLCTDCRIHFKKYGELP [K15Q]	-0.049 ± 0.048
LKGYACRHCFTTTSNDWHHGGRENILLCTDCRIHFKKYGELP [K15N]	-0.324 ± 0.073
LKGYACRHCFTTTSHDWHHGGRENILLCTDCRIHFKKYGELP [K15H]	-0.041 ± 0.06
LKGYACRHCFTTTSMDWHHGGRENILLCTDCRIHFKKYGELP [K15M]	-0.064 ± 0.095
LKGYACRHCFTTTSVDWHHGGRENILLCTDCRIHFKKYGELP [K15V]	-0.091 ± 0.048
LKGYACRHCFTTTSADWHHGGRENILLCTDCRIHFKKYGELP [K15A]	-0.107 ± 0.041
LKGYACRHCFTTTSCDWHHGGRENILLCTDCRIHFKKYGELP [K15C]	-0.313 ± 0.045

Variant	abundance fitness
LKGYACRHCFTTTSYDWHHGGRENILLCTDCRIHFKKYGELP [K15Y]	-0.229 ± 0.09
LKGYACRHCFTTTSPDWHHGGRENILLCTDCRIHFKKYGELP [K15P]	-0.095 ± 0.049
LKGYACRHCFTTTSIDWHHGGRENILLCTDCRIHFKKYGELP [K15I]	-0.222 ± 0.081
LKGYACRHCFTTTSRDWHHGGRENILLCTDCRIHFKKYGELP [K15R]	-0.053 ± 0.037
LKGYACRHCFTTTSDDWHHGGRENILLCTDCRIHFKKYGELP [K15D]	-0.099 ± 0.1
LKGYACRHCFTTTSWDWHHGGRENILLCTDCRIHFKKYGELP [K15W]	-0.489 ± 0.046
LKGYACRHCFTTTSKDRHHGGRENILLCTDCRIHFKKYGELP [W17R]	-0.276 ± 0.033
LKGYACRHCFTTTSKDSHHGGRENILLCTDCRIHFKKYGELP [W17S]	-0.198 ± 0.051
LKGYACRHCFTTTSKDAHHGGRENILLCTDCRIHFKKYGELP [W17A]	-0.191 ± 0.036
LKGYACRHCFTTTSKDVHHGGRENILLCTDCRIHFKKYGELP [W17V]	-0.157 ± 0.039
LKGYACRHCFTTTSKDMHHGGRENILLCTDCRIHFKKYGELP [W17M]	-0.195 ± 0.038
LKGYACRHCFTTTSKDPHHGGRENILLCTDCRIHFKKYGELP [W17P]	-0.149 ± 0.053
LKGYACRHCFTTTSKDTHHGGRENILLCTDCRIHFKKYGELP [W17T]	-0.227 ± 0.053
LKGYACRHCFTTTSKDGHHGGRENILLCTDCRIHFKKYGELP [W17G]	-0.154 ± 0.03
LKGYACRHCFTTTSKDQHHGGRENILLCTDCRIHFKKYGELP [W17Q]	-0.213 ± 0.053
LKGYACRHCFTTTSKDCHHGGRENILLCTDCRIHFKKYGELP [W17C]	-0.295 ± 0.062
LKGYACRHCFTTTSKDLHHGGRENILLCTDCRIHFKKYGELP [W17L]	-0.186 ± 0.036
LKGYACRHCFTTTSKDNHHGGRENILLCTDCRIHFKKYGELP [W17N]	-0.276 ± 0.084
LKGYACRHCFTTTSKDDHHGGRENILLCTDCRIHFKKYGELP [W17D]	-0.197 ± 0.075
LKGYACRHCFTTTSKDKHHGGRENILLCTDCRIHFKKYGELP [W17K]	-0.274 ± 0.057
